According to patent publication US20250163182A1 (Janssen / Centocor, published 2025):

What was measured:
[1] = biological target: T1, human CD3 on T cells (human, UniProt P07766 23-207); assay: flow cytometry on human T cells, donor 110042593
T1 construct: on T cells it stands in the TCR-CD3 complex; also called human T cells; T cells isolated from healthy human donors

[2] = biological target: T2, cynomolgus monkey ENPP3 on HepG2-KO cyENPP3 OE cells (cynomolgus monkey, UniProt A0A2K5TKP4 1-874); assay: cell-based or functional assay
T2 sequence: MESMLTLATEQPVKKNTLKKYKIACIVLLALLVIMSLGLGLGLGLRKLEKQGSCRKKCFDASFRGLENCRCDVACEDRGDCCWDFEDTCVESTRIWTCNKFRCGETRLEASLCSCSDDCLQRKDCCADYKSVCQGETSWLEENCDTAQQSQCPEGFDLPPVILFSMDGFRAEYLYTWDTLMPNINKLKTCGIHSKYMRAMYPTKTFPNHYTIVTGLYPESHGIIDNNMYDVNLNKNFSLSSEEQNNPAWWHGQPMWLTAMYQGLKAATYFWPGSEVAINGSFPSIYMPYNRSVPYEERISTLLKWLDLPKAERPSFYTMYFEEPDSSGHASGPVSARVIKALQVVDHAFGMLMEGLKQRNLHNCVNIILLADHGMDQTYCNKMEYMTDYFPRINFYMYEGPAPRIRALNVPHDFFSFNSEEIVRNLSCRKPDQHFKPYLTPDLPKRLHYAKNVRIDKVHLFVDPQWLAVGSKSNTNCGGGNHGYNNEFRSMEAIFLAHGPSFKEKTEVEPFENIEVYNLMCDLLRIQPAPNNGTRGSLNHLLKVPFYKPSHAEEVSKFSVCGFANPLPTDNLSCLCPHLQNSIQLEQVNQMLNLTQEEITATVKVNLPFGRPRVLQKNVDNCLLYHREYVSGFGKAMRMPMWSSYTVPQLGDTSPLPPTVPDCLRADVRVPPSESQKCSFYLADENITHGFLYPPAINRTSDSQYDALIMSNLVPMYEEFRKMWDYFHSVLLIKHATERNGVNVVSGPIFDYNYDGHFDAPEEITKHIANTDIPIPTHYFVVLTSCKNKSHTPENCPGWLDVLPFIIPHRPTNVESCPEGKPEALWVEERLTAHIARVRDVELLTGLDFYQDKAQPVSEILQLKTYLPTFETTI

[3] = biological target: T3, human ENPP3 on cells (human, UniProt O14638 1-875); assay: cell-based or functional assay
T3 sequence (looked up): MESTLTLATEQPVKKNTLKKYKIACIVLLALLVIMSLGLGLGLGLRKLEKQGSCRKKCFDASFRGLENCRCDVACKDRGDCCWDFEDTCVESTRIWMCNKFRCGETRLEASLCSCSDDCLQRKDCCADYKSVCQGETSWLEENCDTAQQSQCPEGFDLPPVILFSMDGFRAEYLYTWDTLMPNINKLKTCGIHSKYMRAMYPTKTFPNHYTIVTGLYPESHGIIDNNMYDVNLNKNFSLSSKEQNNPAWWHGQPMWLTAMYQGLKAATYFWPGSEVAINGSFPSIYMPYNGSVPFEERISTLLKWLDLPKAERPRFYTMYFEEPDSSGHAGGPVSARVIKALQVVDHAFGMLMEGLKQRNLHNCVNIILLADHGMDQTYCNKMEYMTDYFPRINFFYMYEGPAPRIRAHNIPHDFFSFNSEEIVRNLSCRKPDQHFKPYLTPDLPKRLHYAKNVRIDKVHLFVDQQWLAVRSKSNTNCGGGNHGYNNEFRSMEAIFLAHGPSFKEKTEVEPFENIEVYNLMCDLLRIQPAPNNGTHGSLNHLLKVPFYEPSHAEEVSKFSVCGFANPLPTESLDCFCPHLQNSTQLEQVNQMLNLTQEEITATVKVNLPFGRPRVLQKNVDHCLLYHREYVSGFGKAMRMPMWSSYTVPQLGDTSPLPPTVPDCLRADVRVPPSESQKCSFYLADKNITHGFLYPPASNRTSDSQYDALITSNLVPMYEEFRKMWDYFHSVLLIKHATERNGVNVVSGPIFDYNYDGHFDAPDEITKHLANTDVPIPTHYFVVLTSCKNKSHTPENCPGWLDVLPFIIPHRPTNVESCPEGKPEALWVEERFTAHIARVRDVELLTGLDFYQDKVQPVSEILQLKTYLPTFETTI

[4] = biological target: T1, human CD3 on T cells; assay: flow cytometry on human T cells, donor 888668965

T1 sequence (P07766 23-207 limits assumed): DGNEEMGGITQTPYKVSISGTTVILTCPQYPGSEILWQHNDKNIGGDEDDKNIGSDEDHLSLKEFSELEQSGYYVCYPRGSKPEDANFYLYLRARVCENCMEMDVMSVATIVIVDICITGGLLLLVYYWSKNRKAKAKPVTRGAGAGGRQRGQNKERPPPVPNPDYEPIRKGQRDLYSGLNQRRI

B1: NPP3B815 (bispecific antibody, human IgG1, kappa, L234A L235A)
heavy 1: EIVLTQSPATLSASPGERVTLSCSASSSVSYMNWYQQKPGCAPRRWIYDSSKLASGVPARFSGSGSGRDYTLTISSLEPEDFAVYYCQQWSRNPPTFGGGTKVEIKGGGSGGSGGCPPCGGSGGQVQLVQSGAEVKKPGSSVKVSCKASGYTFTRSTMHWVKQAPGQGLEWIGYINPSSAYTNYNQKFQGRVTLTADKSTSTAYMELSSLRSEDTAVYYCASPQVHYDYAGFPYWGCGTLVTVSSEPKSSDKTHTCPPCPAPEAAGGPSVFLFPPKPKDTLMISRTPEVTCVVVSVSHEDPEVKFNWYVDGVEVHNAKTKPREEQYNSTYRVVSVLTVLHQDWLNGKEYKCKVSNKALPAPIEKTISKAKGQPREPQVYTLPPSREEMTKNQVSLWCLVKGFYPSDIAVEWESNGQPENNYKTTPPVLDSDGSFFLYSKLTVDKSRWQQGNVFSCSVMHEALHNHYTQKSLSLSPGK
heavy 2: EVQLVESGGGRVKPGGSLRLSCAASGFTFSDYSMNWVRQAPGKGLEWVSSISSISSYVKYADSVKGRFTMSRDNAKNSLFLQMNSLRDEDMAVYYCARGHYFDYWGQGTLVTVSSASTKGPSVFPLAPSSKSTSGGTAALGCLVKDYFPEPVTVSWNSGALTSGVHTFPAVLQSSGLYSLSSVVTVPSSSLGTQTYICNVNHKPSNTKVDKKVEPKSCDKTHTCPPCPAPEAAGGPSVFLFPPKPKDTLMISRTPEVTCVVVSVSHEDPEVKFNWYVDGVEVHNAKTKPREEQYNSTYRVVSVLTVLHQDWLNGKEYKCKVSNKALPAPIEKTISKAKGQPREPQVYTLPPSREEMTKNQVSLSCAVKGFYPSDIAVEWESNGQPENNYKTTPPVLDSDGSFFLVSKLTVDKSRWQQGNVFSCSVMHEALHNRFTQKSLSLSPGK
light: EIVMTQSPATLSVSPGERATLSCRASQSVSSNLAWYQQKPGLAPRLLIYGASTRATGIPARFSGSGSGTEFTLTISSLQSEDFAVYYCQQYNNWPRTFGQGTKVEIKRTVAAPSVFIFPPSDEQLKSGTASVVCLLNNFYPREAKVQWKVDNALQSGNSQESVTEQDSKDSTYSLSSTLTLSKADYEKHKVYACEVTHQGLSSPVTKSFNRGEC
notes: HC2 carries the NPP3B56 Fab and the hole T366S, L368A, Y407V; Fc with L234A, L235A, D265S; The CPPC linker cysteines form disulfides with engineered Cys at L42 and H105 (Chothia); also called NPP3B56×CD3B2030-N106A; ENPP3×CD3 (NPP3B815)
For B1, the EC50 [1] was 146 nM, the “Cytotox. EC50; HepG2-KO cyno ENPP3-OE; human T cells; E:T 3:1” value [2] was 0.079 nM and the “T-cell activation EC50; HepG2-KO cyno ENPP3-OE; human T cells; E:T 3:1” value [2] was 0.023 nM. The “killing EC50; A704; PBMC donor 110040278; E:T 3:1” value [3] was 0.052 nM, the “killing EC50; A704; PBMC donor 110040278; E:T 5:1” value [3] was 0.028 nM and the “killing EC50; A704; PBMC donor 110042496; E:T 3:1” value [3] was 0.097 nM. The “killing EC50; A704; PBMC donor 110042496; E:T 5:1” value [3] was 0.061 nM, the “killing EC50; A704; PBMC donor 110042593; E:T 1:1” value [3] was 0.124 nM and the “killing EC50; A704; PBMC donor 110042593; E:T 3:1” value [3] was 0.039 nM. The “killing EC50; A704; PBMC donor 110042593; E:T 5:1” value [3] was 0.015 nM, the “killing EC50; A704; PBMC donor 110044049; E:T 1:1” value [3] was 0.131 nM and the “killing EC50; A704; PBMC donor 110044049; E:T 3:1” value [3] was 0.052 nM. For the same binder, the “killing EC50; A704; PBMC donor 110044049; E:T 5:1” value [3] was 0.016 nM, the “killing EC50; A704; PBMC donor 110048457; E:T 3:1” value [3] was 0.046 nM and the “killing EC50; A704; PBMC donor 110048457; E:T 5:1” value [3] was 0.013 nM. The “killing EC50; A704; PBMC donor 888668965; E:T 1:1” value [3] was 0.107 nM, the “killing EC50; A704; PBMC donor 888668965; E:T 3:1” value [3] was 0.036 nM and the “killing EC50; A704; PBMC donor 888668965; E:T 5:1” value [3] was 0.015 nM. For the same binder, the “killing EC50; VMRCRCW; PBMC donor 110040278; E:T 5:1” value [3] was 0.033 nM, the “killing EC50; VMRCRCW; PBMC donor 110042496; E:T 5:1” value [3] was 0.065 nM and the “killing EC50; VMRCRCW; PBMC donor 110042593; E:T 5:1” value [3] was 0.033 nM. The “killing EC50; VMRCRCW; PBMC donor 110044049; E:T 5:1” value [3] was 0.051 nM, the “killing EC50; VMRCRCW; PBMC donor 110048457; E:T 5:1” value [3] was 0.063 nM and the “killing EC50; VMRCRCW; PBMC donor 888668965; E:T 5:1” value [3] was 0.062 nM. The EC50 [4] was 197 nM.
